T1: androgen receptor (AR) (Homo sapiens, UniProt P10275)
T1 construct: the whole cell actions of TIF2 with full length AR and TRβ; expressed in transfected cells; host or cells: CV-1
T1 sequence (P10275 1-920): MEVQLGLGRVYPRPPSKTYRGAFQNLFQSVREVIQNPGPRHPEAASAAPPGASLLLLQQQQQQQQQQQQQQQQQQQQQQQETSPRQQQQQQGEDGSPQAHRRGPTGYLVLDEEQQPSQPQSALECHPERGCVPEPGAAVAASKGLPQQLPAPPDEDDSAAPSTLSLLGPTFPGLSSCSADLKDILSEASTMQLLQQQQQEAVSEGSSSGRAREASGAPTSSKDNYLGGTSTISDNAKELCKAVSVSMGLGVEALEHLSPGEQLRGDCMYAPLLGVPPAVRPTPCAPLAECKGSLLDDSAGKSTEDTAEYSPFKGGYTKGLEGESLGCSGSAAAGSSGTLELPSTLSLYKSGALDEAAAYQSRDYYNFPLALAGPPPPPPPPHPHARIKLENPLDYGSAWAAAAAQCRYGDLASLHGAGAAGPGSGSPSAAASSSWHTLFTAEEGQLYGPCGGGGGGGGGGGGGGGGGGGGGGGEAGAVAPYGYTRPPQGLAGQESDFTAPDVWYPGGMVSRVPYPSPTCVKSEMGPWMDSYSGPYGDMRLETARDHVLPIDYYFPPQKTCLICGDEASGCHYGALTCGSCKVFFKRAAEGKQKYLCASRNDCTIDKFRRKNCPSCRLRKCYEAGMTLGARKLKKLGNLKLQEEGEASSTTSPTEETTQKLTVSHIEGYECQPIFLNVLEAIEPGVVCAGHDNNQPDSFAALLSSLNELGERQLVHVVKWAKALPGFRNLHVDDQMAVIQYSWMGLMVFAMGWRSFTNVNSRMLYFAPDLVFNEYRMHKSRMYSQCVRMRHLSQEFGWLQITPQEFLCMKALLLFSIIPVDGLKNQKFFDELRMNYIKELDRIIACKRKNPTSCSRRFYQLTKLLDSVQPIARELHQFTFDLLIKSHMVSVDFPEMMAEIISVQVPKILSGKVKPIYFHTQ

T2: ERα (Homo sapiens, UniProt P03372)
T2 construct: plus VP16 fused to the indicated full length receptors; expressed in transfected cells; host or cells: CV-1
T2 sequence (P03372 1-595): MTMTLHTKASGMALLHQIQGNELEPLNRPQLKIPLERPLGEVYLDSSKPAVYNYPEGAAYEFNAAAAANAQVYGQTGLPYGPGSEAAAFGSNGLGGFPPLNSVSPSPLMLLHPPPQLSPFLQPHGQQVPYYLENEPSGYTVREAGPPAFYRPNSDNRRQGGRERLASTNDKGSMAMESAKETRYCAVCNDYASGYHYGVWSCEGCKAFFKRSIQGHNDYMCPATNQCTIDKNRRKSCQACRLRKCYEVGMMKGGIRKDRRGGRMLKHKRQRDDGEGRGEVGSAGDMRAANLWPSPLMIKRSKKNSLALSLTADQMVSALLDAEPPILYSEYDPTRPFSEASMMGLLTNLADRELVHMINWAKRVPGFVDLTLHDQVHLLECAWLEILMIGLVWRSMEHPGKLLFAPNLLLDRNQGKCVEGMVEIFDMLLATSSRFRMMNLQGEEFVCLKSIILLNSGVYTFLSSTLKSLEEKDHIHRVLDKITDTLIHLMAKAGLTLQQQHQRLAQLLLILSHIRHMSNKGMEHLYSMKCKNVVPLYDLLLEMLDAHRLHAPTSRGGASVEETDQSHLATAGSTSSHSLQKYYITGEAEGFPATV

B1: STAMP: SRC-1 and TIF2 Associated Modulatory Protein, 1277 amino acid human polypeptide, expressed from transfected plasmid (protein)
chain: MARDLEETASSSEDEEVISQEDHPCIMWTGGCRRIPVLVFHADAILTKDNNIRVIGERYHLSYKIVRTDSRLVRSILTAHGFHEVHPSSTDYNLMWTGSHLKPFLLRTLSEAQKVNHFPRSYELTRKDRLYKNIIRMQHTHGFKVFHILPQTFLLPAEYAEFCNSYSKDRGPWIVKPVASSRGRGVYLINNPNQISLEENILVSRYINNPLLIDDFKFDVRLYVLVTSYDPLVIYLYEEGLARFATVRYDQGAKNIRNQFMHLTNYSVNKKSGDYVSCDDPEVEDYGNKWSMSAMLRYLKQEGRDTTALMAHVEDLIIKTIISAELAIATACKTFVPHRSSCFELYGFDVLIDSTLKPWLLEVNLSPSLACDAPLDLKIKASMISDMFTVVGFVCQDPAQRASTRPIYPTFESSRRNPFQKPQRCRPLSASDAEMKNLVGSAREKGPGKLGGSVLGLSMEEIKVLRRVKEENDRRGGFIRIFPTSETWEIYGSYLEHKTSMNYMLATRLFQDRMTADGAPELKIESLNSKAKLHAALYERKLLSLEVRKRRRRSSRLRAMRPKYPVITQPAEMNVKTETESEEEEEVALDNEDEEQEASQEESAGFLRENQAKYTPSLTALVENTPKENSMKVREWNNKGGHCCKLETQELEPKFNLMQILQDNGNLSKMQARIAFSAYLQHVQIRLMKDSGGQTFSASWAAKEDEQMELVVRFLKRASNNLQHSLRMVLPSRRLALLERRRILAHQLGDFIIVYNKETEQMAEKKSKKKVEEEEEDGVNMENFQEFIRQASEAELEEVLTFYTQKNKSASVFLGTHSKISKNNNNYSDSGAKGDHPETIMEEVKIKPPKQQQTTEIHSDKLSRFTTSAEKEAKLVYSNSSSGPTATLQKIPNTHLSSVTTSDLSPGPCHHSSLSQIPSAIPSMPHQPTILLNTVSASASPCLHPGAQNIPSPTGLPRCRSGSHTIGPFSSFQSAAHIYSQKLSRPSSAKAGSCYLNKHHSGIAKTQKEGEDASLYSKRYNQSMVTAELQRLAEKQAARQYSPSSHINLLTQQVTNLNLATGIINRSSASAPPTLRPIISPSGPTWSTQSDPQAPENHSSSPGSRSLQTGGFAWEGEVENNVYSQATGVVPQHKYHPTAGSYQLQFALQQLEQQKLQSRQLLDQSRARHQAIFGSQTLPNSNLWTMNNGAGCRISSATASGQKPTTLPQKVVPPPSSCASLVPKPPPNHEQVLRRATSQKASKGSSAEGQLNGLQSSLNPAASVPITSSTDPAHTKI
B2: STAMP834C: STAMP fragment amino acids 834-1277, receptor interaction domain (RID) (protein)
chain: GDHPETIMEEVKIKPPKQQQTTEIHSDKLSRFTTSAEKEAKLVYSNSSSGPTATLQKIPNTHLSSVTTSDLSPGPCHHSSLSQIPSAIPSMPHQPTILLNTVSASASPCLHPGAQNIPSPTGLPRCRSGSHTIGPFSSFQSAAHIYSQKLSRPSSAKAGSCYLNKHHSGIAKTQKEGEDASLYSKRYNQSMVTAELQRLAEKQAARQYSPSSHINLLTQQVTNLNLATGIINRSSASAPPTLRPIISPSGPTWSTQSDPQAPENHSSSPGSRSLQTGGFAWEGEVENNVYSQATGVVPQHKYHPTAGSYQLQFALQQLEQQKLQSRQLLDQSRARHQAIFGSQTLPNSNLWTMNNGAGCRISSATASGQKPTTLPQKVVPPPSSCASLVPKPPPNHEQVLRRATSQKASKGSSAEGQLNGLQSSLNPAASVPITSSTDPAHTKI

Legend:
androgen receptor (AR) = target: T1, androgen receptor (AR); assay: AR-mediated induction of GREtkLUC reporter in CV-1 cells; assay type: cell-based; settings: R1881
Procedure: FIG. 6D1-2 illustrate the effects of STAMP and TIF2 on androgen receptor (AR, FIG. 6D1) and thyroid receptor β (TRβ, FIG. 6D2) expression. […] Luciferase activities, normalized to the internal Renilla control values, and the fold changes in EC50 and fold induction were determined and plotted as in FIG. 4B.

ERα = target: T2, ERα; assay: Mammalian two-hybrid assay with VP16 full length receptor: ERα; assay type: cell-based; settings: 1 μM estradiol
Procedure: FIG. 6C1-3 illustrate the association of STAMP with assorted steroid/nuclear receptors, including glucocorticoid receptors (GRs), progesterone receptors (PRs), androgen receptors (ARs), estrogen receptors (ER α or β), PPARγ2 receptors, thyroid receptor beta (TR), and retinoid (α) receptors (RAR α or RXR α). Triplicate samples of CV-1 cells were transfected (as described for FIG. 6B) with GAL, or GAL fused to TIF2.4 or STAMP834C, plus VP16 fused to the indicated full length receptors and incubated with the appropriate steroid (1 μM Dex, 20 nM R5020, 1 nM R1881, 0.1 μM triiodothyronine, or 1 μM estradiol, roziglitazone, or 9-cis-retinoic acid). The average relative luciferase activities of 2-3 experiments±S.E.M. were then plotted. FIG. 6C1 illustrates the effects of STAMP association upon GR, PR and AR induced expression. FIG. 6C2 illustrates the effects of STAMP association upon ERα, ERβ and PPARγ2 induced expression. FIG. 6C3 illustrates the effects of STAMP association upon TR, RARα and RXRα induced expression.
These assays were conducted as described (He et al., 2002). […]

Row | Molecule | left-shift of the dose-response curve of ARs (androgen receptor (AR); STAMP added by itself) | fold induction by AR (androgen receptor (AR); STAMP with TIF2) | fold induction by AR (androgen receptor (AR); STAMP without TIF2) | left-shift of the dose-response curve of ARs (androgen receptor (AR); in the presence of TIF2) | interaction with estrogen receptor α (ERα)
1 | B1 | not when added by itself | no additional effect | increases the fold induction | augments the left-shift | –
2 | B2 | – | – | – | – | lack of interaction
